tested on: Escherichia coli TOP10; test: shrunken log2 fold change of peptide-encoding DNA abundance (4.5 h post-induction vs induction); higher = less antimicrobial activity (less host growth inhibition); details: time post-induction: 4.5 h; library: site-saturation at positions 5, 18, 19, 20
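Also: peptides expressed intracellularly from a pBAD plasmid library in pooled LB shake-flask culture, induced with 0.3% L-arabinose, DNA abundance read by NGS, three biological replicates, DESeq2 with apeglm shrinkage.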

Row | Sequence | shrunken log2 fold change
1 | RRIRSRPPRLPRPRPRPCPIPRP | -0.267
2 | RRIRLRPPRLPRPRPRPIKKPRP | 0.0365
3 | RRIRSRPPRLPRPRPRPCQSPRP | -0.01
4 | RRIRCRPPRLPRPRPRPQMEPRP | 0.04
5 | RRIRMRPPRLPRPRPRPKFWPRP | 1.87
6 | RRIRARPPRLPRPRPRPEFLPRP | 0.465
7 | RRIRFRPPRLPRPRPRPTKAPRP | 0.0916
8 | RRIRNRPPRLPRPRPRPHSVPRP | -0.015
9 | RRIRYRPPRLPRPRPRPLDSPRP | -0.403
10 | RRIRERPPRLPRPRPRPEFYPRP | -0.377
11 | RRIRQRPPRLPRPRPRPKTDPRP | -0.326
12 | RRIRIRPPRLPRPRPRPENVPRP | 0.267
13 | RRIRARPPRLPRPRPRPLFMPRP | -0.166
14 | RRIRFRPPRLPRPRPRPWKAPRP | 0.0062
15 | RRIRARPPRLPRPRPRPTMDPRP | -0.037
16 | RRIRRRPPRLPRPRPRPNFGPRP | 0.105
17 | RRIRTRPPRLPRPRPRPCGLPRP | 0.165
18 | RRIRVRPPRLPRPRPRPAKRPRP | 0.615
19 | RRIRPRPPRLPRPRPRPYWSPRP | -0.324
20 | RRIRRRPPRLPRPRPRPKVWPRP | 0.382
21 | RRIRTRPPRLPRPRPRPSVFPRP | -0.337
22 | RRIRHRPPRLPRPRPRPFRNPRP | -0.221

Row | Sequence | shrunken log2 fold change
23 | RRIRHRPPRLPRPRPRPQWKPRP | -0.0774
24 | RRIRHRPPRLPRPRPRPSLCPRP | -0.0468
25 | RRIRCRPPRLPRPRPRPMMIPRP | -0.044
26 | RRIRERPPRLPRPRPRPGTRPRP | -0.0692
27 | RRIRERPPRLPRPRPRPWFQPRP | -0.0883
28 | RRIRMRPPRLPRPRPRPDACPRP | 1.97
29 | RRIRYRPPRLPRPRPRPTQAPRP | -0.00154
30 | RRIRLRPPRLPRPRPRPGNPPRP | 0.0749
31 | RRIRSRPPRLPRPRPRPEVMPRP | 0.104
32 | RRIRTRPPRLPRPRPRPSDVPRP | -0.83
33 | RRIRCRPPRLPRPRPRPGGQPRP | -0.218
34 | RRIRQRPPRLPRPRPRPHKPPRP | -0.0272
35 | RRIRTRPPRLPRPRPRPDRDPRP | -0.126
36 | RRIRSRPPRLPRPRPRPWAWPRP | -0.131
37 | RRIRWRPPRLPRPRPRPYCIPRP | -0.179
38 | RRIRKRPPRLPRPRPRPTRHPRP | 0.482
39 | RRIRSRPPRLPRPRPRPRNPPRP | 0.103
40 | RRIRIRPPRLPRPRPRPVNVPRP | -0.404
41 | RRIRCRPPRLPRPRPRPTAHPRP | 0.181
42 | RRIRWRPPRLPRPRPRPVPSPRP | 0.058
43 | RRIRERPPRLPRPRPRPMDYPRP | -0.214
44 | RRIRWRPPRLPRPRPRPVIDPRP | 0.373

Row | Sequence | shrunken log2 fold change
45 | RRIRCRPPRLPRPRPRPPKYPRP | -0.291
46 | RRIRSRPPRLPRPRPRPIVAPRP | 0.0103
47 | RRIRTRPPRLPRPRPRPIWKPRP | 0.0742
48 | RRIRFRPPRLPRPRPRPCECPRP | -0.138
49 | RRIRSRPPRLPRPRPRPAKMPRP | -0.0464
50 | RRIRHRPPRLPRPRPRPVHCPRP | -0.159
51 | RRIRYRPPRLPRPRPRPKTFPRP | -0.251
52 | RRIRARPPRLPRPRPRPCVIPRP | 0.158
53 | RRIRKRPPRLPRPRPRPKQRPRP | 0.393
54 | RRIRQRPPRLPRPRPRPYNWPRP | -0.11
55 | RRIRFRPPRLPRPRPRPIIDPRP | -1.61
56 | RRIRYRPPRLPRPRPRPLNAPRP | -0.859
57 | RRIRFRPPRLPRPRPRPGWDPRP | 0.0298
58 | RRIRTRPPRLPRPRPRPALHPRP | -0.19
59 | RRIRRRPPRLPRPRPRPEKQPRP | 0.147
60 | RRIRSRPPRLPRPRPRPAIFPRP | 0.0447
61 | RRIRQRPPRLPRPRPRPNHTPRP | -0.0975
62 | RRIRDRPPRLPRPRPRPYVYPRP | -0.0147
63 | RRIRCRPPRLPRPRPRPQCGPRP | -0.609
64 | RRIRFRPPRLPRPRPRPIWHPRP | -0.0746
65 | RRIRGRPPRLPRPRPRPPSLPRP | 0.477
66 | RRIRGRPPRLPRPRPRPRCNPRP | 0.551

Row | Sequence | shrunken log2 fold change
67 | RRIRKRPPRLPRPRPRPGMHPRP | 0.213
68 | RRIRGRPPRLPRPRPRPQMFPRP | 0.612
69 | RRIRIRPPRLPRPRPRPALYPRP | -0.312
70 | RRIRTRPPRLPRPRPRPCPSPRP | -0.0705
71 | RRIRHRPPRLPRPRPRPKCAPRP | -0.0408
72 | RRIRPRPPRLPRPRPRPDAAPRP | 0.721
73 | RRIRSRPPRLPRPRPRPKMSPRP | -0.105
74 | RRIRDRPPRLPRPRPRPLVEPRP | 0.331
75 | RRIRERPPRLPRPRPRPRPEPRP | 0.314
76 | RRIRQRPPRLPRPRPRPGYGPRP | -0.131
77 | RRIRFRPPRLPRPRPRPNKYPRP | -0.684
78 | RRIRFRPPRLPRPRPRPISKPRP | -0.0939
79 | RRIRYRPPRLPRPRPRPPHDPRP | -0.383
80 | RRIRSRPPRLPRPRPRPKEIPRP | -0.0586
81 | RRIRYRPPRLPRPRPRPPGNPRP | -0.0342
82 | RRIRGRPPRLPRPRPRPDYWPRP | -0.027
83 | RRIRRRPPRLPRPRPRPDMAPRP | 0.373
84 | RRIRRRPPRLPRPRPRPHEPPRP | -0.0636
85 | RRIRARPPRLPRPRPRPITFPRP | 0.051
86 | RRIRWRPPRLPRPRPRPKSEPRP | 0.502
87 | RRIRCRPPRLPRPRPRPCLSPRP | -0.381
88 | RRIRARPPRLPRPRPRPIHRPRP | -0.26

Row | Sequence | shrunken log2 fold change
89 | RRIRGRPPRLPRPRPRPAAAPRP | 2.36
90 | RRIRVRPPRLPRPRPRPCANPRP | -0.129
91 | RRIRQRPPRLPRPRPRPGYSPRP | -0.00603
92 | RRIRDRPPRLPRPRPRPFFLPRP | -0.261
93 | RRIRYRPPRLPRPRPRPLPVPRP | -0.142
94 | RRIRPRPPRLPRPRPRPQNIPRP | -0.456
95 | RRIRWRPPRLPRPRPRPMEVPRP | -0.00973
96 | RRIRKRPPRLPRPRPRPDCPPRP | 0.178
97 | RRIRIRPPRLPRPRPRPYDHPRP | -0.285
98 | RRIRSRPPRLPRPRPRPWMAPRP | 0.0303
99 | RRIRPRPPRLPRPRPRPSRKPRP | 0.0349
100 | RRIRSRPPRLPRPRPRPYWWPRP | -0.231
101 | RRIRDRPPRLPRPRPRPLVQPRP | 0.709
102 | RRIRYRPPRLPRPRPRPYAAPRP | -0.546
103 | RRIRIRPPRLPRPRPRPPYNPRP | -0.854
104 | RRIRSRPPRLPRPRPRPTCIPRP | 0.0869
105 | RRIRRRPPRLPRPRPRPYELPRP | -0.297
106 | RRIRDRPPRLPRPRPRPYSDPRP | 0.0396
107 | RRIRWRPPRLPRPRPRPDNAPRP | -0.000159
108 | RRIRTRPPRLPRPRPRPRKCPRP | -0.1
109 | RRIRVRPPRLPRPRPRPMQSPRP | 0.292

From the supplement of paper PMC9112550, “Optimization of the antimicrobial peptide Bac7 by deep mutational scanning” (BMC Biology, 2022)
